Laboratory results published in patent publication US20120171723A1 (published 2012).
“And” between values parts separate entries of the source, which are not always exact repeats. Identical values can stand only once.

Tests used:
Assay in all cases: cell-based or functional assay
[1] = target: FGFR3α-IIIc expressed on transfected BAF3 cells
[2] = target: FGFR1α-IIIb expressed on transfected BAF3 cells
[3] = target: FGFR2α-IIIb expressed on transfected BAF3 cells
[4] = target: FGFR2α-IIIc expressed on transfected BAF3 cells
[5] = target: FGFR3α-IIIb expressed on transfected BAF3 cells
[6] = target: FGFR1α-IIIc expressed on transfected BAF3 cells
[7] = target: FGFR3α-IIIc expressed on transfected BAF3 cells; remark: listed apart in the source

B1: human zFGF5 (FGF homolog polypeptide) (ligand)
chain: EENVDFRIHVENQTRARDDVSRKQLRLYQLYSRTSGKHIQVLGRRISARGEDGDKYAQLLVETDTFGSQVRIKGKETEFYLCMNRKGKLVGKPDGTSKECVFIEKVLENNYTALMSAKYSGWYVGFTKKGRPRKGPKTRENQQDVHFMKRYPKGQPELQKPFKYTTVTKRSRRIRPTHPA
In the case of B1, the “Alamar Blue Units (proliferation of BAF3 cells expressing the receptor) at 1.6 ng/ml zFGF5” value (“Alamar Blue Units … at 1.6 ng/ml zFGF5” below) [1] is reported as 1400 Alamar Blue Units, the “Alamar Blue Units (proliferation of BAF3 cells expressing the receptor) at 3.1 ng/ml zFGF5” value (shortened to “Alamar Blue Units … at 3.1 ng/ml zFGF5”) [1] is reported as 2000 Alamar Blue Units and the “Alamar Blue Units (proliferation of BAF3 cells expressing the receptor) at 6.2 ng/ml zFGF5” value (“Alamar Blue Units … at 6.2 ng/ml zFGF5” for short) [1] is reported as 2580 Alamar Blue Units. The “Alamar Blue Units (proliferation of BAF3 cells expressing the receptor) at 12.5 ng/ml zFGF5” value (“Alamar Blue Units … at 12.5 ng/ml zFGF5” below) [1] was 3200 Alamar Blue Units, the “Alamar Blue Units (proliferation of BAF3 cells expressing the receptor) at 25 ng/ml zFGF5” value (“Alamar Blue Units … at 25 ng/ml zFGF5” below) [1] was 3760 Alamar Blue Units and the “Alamar Blue Units (proliferation of BAF3 cells expressing the receptor) at 50 ng/ml zFGF5” value (from here on “Alamar Blue Units … at 50 ng/ml zFGF5”) [1] was 3960 Alamar Blue Units. For the same binder, the “Alamar Blue Units (proliferation of BAF3 cells expressing the receptor) at 100 ng/ml zFGF5” value (shortened to “Alamar Blue Units … at 100 ng/ml zFGF5”) [1] was 4120 Alamar Blue Units, the “Alamar Blue Units (proliferation of BAF3 cells expressing the receptor) at 200 ng/ml zFGF5” value (“Alamar Blue Units … at 200 ng/ml zFGF5” for short) [1] was 4200 Alamar Blue Units and the “Alamar Blue Units … at 1.6 ng/ml zFGF5” value [2] was 0 Alamar Blue Units. For the same binder, the “Alamar Blue Units … at 3.1 ng/ml zFGF5” value [2] was 1.7 Alamar Blue Units, the “Alamar Blue Units … at 6.2 ng/ml zFGF5” value [2] was 1.3 Alamar Blue Units and the “Alamar Blue Units … at 12.5 ng/ml zFGF5” value [2] was 0 Alamar Blue Units. The “Alamar Blue Units … at 25 ng/ml zFGF5” value [2] was 10.9 Alamar Blue Units, the “Alamar Blue Units … at 50 ng/ml zFGF5” value [2] was 0 Alamar Blue Units and the “Alamar Blue Units … at 100 ng/ml zFGF5” value [2] was 0 Alamar Blue Units. The “Alamar Blue Units … at 200 ng/ml zFGF5” value [2] was 0 Alamar Blue Units, the “Alamar Blue Units … at 1.6 ng/ml zFGF5” value [3] was 0.2 Alamar Blue Units and the “Alamar Blue Units … at 3.1 ng/ml zFGF5” value [3] was 0.06 Alamar Blue Units. For the same binder, the “Alamar Blue Units … at 6.2 ng/ml zFGF5” value [3] was 0 Alamar Blue Units, the “Alamar Blue Units … at 12.5 ng/ml zFGF5” value [3] was 0.4 Alamar Blue Units and the “Alamar Blue Units … at 25 ng/ml zFGF5” value [3] was 0.2 Alamar Blue Units. The “Alamar Blue Units … at 50 ng/ml zFGF5” value [3] was 0.5 Alamar Blue Units, the “Alamar Blue Units … at 100 ng/ml zFGF5” value [3] was 1.3 Alamar Blue Units and the “Alamar Blue Units … at 200 ng/ml zFGF5” value [3] was 1.3 Alamar Blue Units. For the same binder, the “Alamar Blue Units … at 1.6 ng/ml zFGF5” value [4] was 241 Alamar Blue Units, the “Alamar Blue Units … at 3.1 ng/ml zFGF5” value [4] was 480 Alamar Blue Units and the “Alamar Blue Units … at 6.2 ng/ml zFGF5” value [4] was 715 Alamar Blue Units. The “Alamar Blue Units … at 12.5 ng/ml zFGF5” value [4] was 977 Alamar Blue Units, the “Alamar Blue Units … at 25 ng/ml zFGF5” value [4] was 1310 Alamar Blue Units and the “Alamar Blue Units … at 50 ng/ml zFGF5” value [4] was 1520 Alamar Blue Units. The “Alamar Blue Units … at 100 ng/ml zFGF5” value [4] was 1720 Alamar Blue Units, the “Alamar Blue Units … at 200 ng/ml zFGF5” value [4] was 1790 Alamar Blue Units and the “Alamar Blue Units … at 1.6 ng/ml zFGF5” value [5] was 0 Alamar Blue Units. For the same binder, the “Alamar Blue Units … at 3.1 ng/ml zFGF5” value [5] was 0 Alamar Blue Units, the “Alamar Blue Units … at 6.2 ng/ml zFGF5” value [5] was 0 Alamar Blue Units and the “Alamar Blue Units … at 12.5 ng/ml zFGF5” value [5] was 0 Alamar Blue Units. The “Alamar Blue Units … at 25 ng/ml zFGF5” value [5] was 1.4 Alamar Blue Units, the “Alamar Blue Units … at 50 ng/ml zFGF5” value [5] was 19 Alamar Blue Units and the “Alamar Blue Units … at 100 ng/ml zFGF5” value [5] was 189 Alamar Blue Units. For the same binder, the “Alamar Blue Units … at 200 ng/ml zFGF5” value [5] was 472 Alamar Blue Units, the “Alamar Blue Units … at 1.6 ng/ml zFGF5” value [6] was 2.6 Alamar Blue Units and the “Alamar Blue Units … at 3.1 ng/ml zFGF5” value [6] was 4.2 Alamar Blue Units. The “Alamar Blue Units … at 6.2 ng/ml zFGF5” value [6] was 14.2 Alamar Blue Units, the “Alamar Blue Units … at 12.5 ng/ml zFGF5” value [6] was 29.9 Alamar Blue Units and the “Alamar Blue Units … at 25 ng/ml zFGF5” value [6] was 86 Alamar Blue Units. For the same binder, the “Alamar Blue Units … at 50 ng/ml zFGF5” value [6] was 224 Alamar Blue Units, the “Alamar Blue Units … at 100 ng/ml zFGF5” value [6] was 488 Alamar Blue Units and the “Alamar Blue Units … at 200 ng/ml zFGF5” value [6] was 912 Alamar Blue Units. The “EC50 of the cell proliferative response” value [7] was ~1 ng/mL and ~2 ng/mL.
